JP2001526021A

Target: ブラジキニン受容体 (bradykinin receptor) on SV-T2 cells
Test: cell-based or functional assay

Substance: ブラジキニン (bradykinin) (peptide)
- PGE2合成 (PGE2 synthesis in SV-T2 cells, ELISA): 4 倍 (fold)
- PGE2合成 (PGE2 synthesis in SV-T2 cells, Fig. 7C): 4 倍 (fold)
